Data published in paper PMC9486875.

Target: T1, GST-Mei2 RRM1-RRM2 (Schizosaccharomyces pombe, UniProt P08965 191-373)
T1 sequence: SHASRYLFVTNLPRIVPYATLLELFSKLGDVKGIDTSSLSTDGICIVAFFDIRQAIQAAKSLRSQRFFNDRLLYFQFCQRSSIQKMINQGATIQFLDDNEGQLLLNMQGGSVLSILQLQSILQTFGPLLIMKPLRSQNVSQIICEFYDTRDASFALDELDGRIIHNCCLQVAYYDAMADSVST
Test: EMSA

## GUCAAUCUUCUGCCGUCUUG (ssRNA) [meiRNA 20mer]
  binding result: no binding
